Laboratory results taken from PMC6355928.

Target: Rheb (UniProt Q15382)
Assay: co-immunoprecipitation, Western blot
Conditions: reference: USP4 wild type; sites S445

binding against the reference: weaker
Substance: USP4 (from UniProt Q13107) USP4-S445A
